Common to all, as to assay: pull-down
Assay [1] deals with GST-tagged FL-importin α3 (human) (UniProt O00629).
Assay [2] deals with GST-tagged FL-importin α1 (mouse) (UniProt P52293).
Assay [3] addresses GST-tagged FL-importin α7 (human) (UniProt O60684).
In assay [4] the target is GST-tagged ΔIBB-importin α7 (human) (UniProt O60684).
In assay [5] the target is GST-tagged ΔIBB-importin α1 (mouse) (UniProt P52293).
For assay [6], the target named is GST-tagged ΔIBB-importin α3 (human) (UniProt O00629).
Assay [7] concerns the target GST-tagged IBB3-importin α1 (human | mouse) (UniProt O00629).
The target in assay [8] is GST-tagged IBB1-importin α3 (mouse | human) (UniProt P52293).

Sequence of MBP-tagged PB2-biNLS (res. 738-759) (P31345 738-759 limits assumed): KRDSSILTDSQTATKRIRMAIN
Sequence of GST-tagged ΔIBB-importin α7 (human) (O60684 59-536, stated change not applied): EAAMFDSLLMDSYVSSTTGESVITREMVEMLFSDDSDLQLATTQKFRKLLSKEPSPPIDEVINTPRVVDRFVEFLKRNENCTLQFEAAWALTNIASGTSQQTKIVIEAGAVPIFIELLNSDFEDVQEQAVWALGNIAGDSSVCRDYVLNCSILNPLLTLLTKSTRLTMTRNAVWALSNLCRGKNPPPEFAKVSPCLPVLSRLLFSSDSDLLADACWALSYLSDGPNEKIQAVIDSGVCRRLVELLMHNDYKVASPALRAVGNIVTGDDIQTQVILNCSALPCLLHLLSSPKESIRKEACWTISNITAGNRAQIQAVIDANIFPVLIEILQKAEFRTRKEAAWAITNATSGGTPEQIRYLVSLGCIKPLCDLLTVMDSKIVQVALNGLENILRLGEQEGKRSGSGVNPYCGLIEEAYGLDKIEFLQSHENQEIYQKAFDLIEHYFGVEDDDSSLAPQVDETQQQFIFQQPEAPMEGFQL
Sequence of GST-tagged FL-importin α3 (human) (O00629 whole entry): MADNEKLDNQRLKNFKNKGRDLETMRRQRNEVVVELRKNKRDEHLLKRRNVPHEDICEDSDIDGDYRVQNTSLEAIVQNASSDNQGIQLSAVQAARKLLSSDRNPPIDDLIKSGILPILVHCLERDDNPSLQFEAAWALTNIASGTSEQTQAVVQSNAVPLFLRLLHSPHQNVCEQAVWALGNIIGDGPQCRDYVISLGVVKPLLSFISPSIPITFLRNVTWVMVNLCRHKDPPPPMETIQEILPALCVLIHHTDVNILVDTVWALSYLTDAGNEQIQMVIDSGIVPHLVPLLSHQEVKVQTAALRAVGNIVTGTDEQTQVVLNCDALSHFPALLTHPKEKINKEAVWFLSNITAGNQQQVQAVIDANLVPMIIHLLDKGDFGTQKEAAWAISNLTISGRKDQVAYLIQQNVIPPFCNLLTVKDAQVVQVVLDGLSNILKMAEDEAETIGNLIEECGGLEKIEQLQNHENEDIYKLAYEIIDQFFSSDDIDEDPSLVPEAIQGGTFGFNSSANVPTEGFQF

On to “MBP-tagged PB2-biNLS (res. 738-759) (from UniProt P31345 738-759) (peptide)”, for which the percent of importin α bound to cargo turned out to be 7% in assay [1]; 7% in assay [2]; 21% in assay [3]; 81% in assay [4]; 51% in assay [5]; 27% in assay [6].
On to “MBP-tagged PB2-NLD (res. 678-759) (from UniProt P31345 678-759) (domain or fragment)”, for which the percent of importin α bound to cargo is 32% in assay [2]; 70% in assay [7]; 62% in assay [3]; 100% in assay [4]; 100% in assay [5]; 100% in assay [6].
For the substance “MBP-tagged nucleoplasmin NLS (NP-NLS, res. 155-170) (from UniProt P05221 155-170) (peptide)”, the percent of importin α bound to cargo was determined as 57% in assay [7], 12% in assay [8] and 45% in assay [6].

(Values after PMC4346194.)
